The source of these data is US20130115677.

Common to all, as to experiment: cleavage_in_vitro
Data set [1] concerns T1, SbfI (Streptomyces species Bf-61?).
T1 sequence: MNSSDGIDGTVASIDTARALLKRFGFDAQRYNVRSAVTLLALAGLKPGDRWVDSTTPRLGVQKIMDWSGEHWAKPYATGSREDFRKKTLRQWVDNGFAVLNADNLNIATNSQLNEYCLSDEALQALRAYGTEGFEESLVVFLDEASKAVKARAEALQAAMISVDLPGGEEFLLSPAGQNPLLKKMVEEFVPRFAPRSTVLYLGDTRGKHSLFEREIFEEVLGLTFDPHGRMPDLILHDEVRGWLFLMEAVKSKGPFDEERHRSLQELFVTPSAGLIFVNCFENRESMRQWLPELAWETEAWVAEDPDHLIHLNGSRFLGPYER
Particulars: NEB4, 37 C, Mg2+.

Data set [2] deals with BstXI. Particulars: NEB4, 55 C, Mg2+.
Data set [3] addresses T2, PstI-HF D91A (Providencia stuartii 164) (UniProt P00640).
T2 sequence: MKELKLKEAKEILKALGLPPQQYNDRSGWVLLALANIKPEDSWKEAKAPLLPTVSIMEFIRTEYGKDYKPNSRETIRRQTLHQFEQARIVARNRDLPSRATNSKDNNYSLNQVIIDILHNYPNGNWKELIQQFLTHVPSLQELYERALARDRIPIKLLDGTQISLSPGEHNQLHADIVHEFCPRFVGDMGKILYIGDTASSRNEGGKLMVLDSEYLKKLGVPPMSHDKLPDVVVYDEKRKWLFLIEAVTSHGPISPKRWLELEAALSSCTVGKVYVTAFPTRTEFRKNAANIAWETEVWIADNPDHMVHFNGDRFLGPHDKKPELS
Particulars: NEB4, 37 C, Mg2+.

Data set [4] concerns T3, BsmBI-HF N185Y/R232A (Bacillus stearothermophilus).
T3 sequence: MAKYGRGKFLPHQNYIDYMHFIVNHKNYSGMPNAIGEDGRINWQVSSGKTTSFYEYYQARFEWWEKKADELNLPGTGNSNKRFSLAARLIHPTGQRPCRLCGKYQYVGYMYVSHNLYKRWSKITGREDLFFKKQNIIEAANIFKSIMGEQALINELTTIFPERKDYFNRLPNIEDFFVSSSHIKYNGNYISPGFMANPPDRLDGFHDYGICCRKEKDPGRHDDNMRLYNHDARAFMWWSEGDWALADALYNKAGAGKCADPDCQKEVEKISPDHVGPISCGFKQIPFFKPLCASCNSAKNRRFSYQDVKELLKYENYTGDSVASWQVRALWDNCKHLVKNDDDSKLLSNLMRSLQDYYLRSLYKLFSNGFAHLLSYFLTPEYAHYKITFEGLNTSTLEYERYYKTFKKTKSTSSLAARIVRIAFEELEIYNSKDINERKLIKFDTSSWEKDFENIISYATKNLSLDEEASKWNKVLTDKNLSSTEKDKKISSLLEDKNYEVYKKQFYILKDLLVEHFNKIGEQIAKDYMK
Particulars: NEB4, 55 C, Mg2+.

Data set [5] has as its target T4, BamHI (Bacillus amyloliquefaciens) (UniProt P23940).
T4 sequence: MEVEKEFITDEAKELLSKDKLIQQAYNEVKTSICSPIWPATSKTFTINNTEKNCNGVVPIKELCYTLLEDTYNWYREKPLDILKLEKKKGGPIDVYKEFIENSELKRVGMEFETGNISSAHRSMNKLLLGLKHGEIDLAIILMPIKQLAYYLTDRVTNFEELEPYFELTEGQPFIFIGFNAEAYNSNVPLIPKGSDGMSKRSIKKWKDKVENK
Particulars: NEB4, 37 C, Mg2+.

Data set [6] relates to T5, SphI-HF K100A (Streptomyces phaeochromogenes).
T5 sequence: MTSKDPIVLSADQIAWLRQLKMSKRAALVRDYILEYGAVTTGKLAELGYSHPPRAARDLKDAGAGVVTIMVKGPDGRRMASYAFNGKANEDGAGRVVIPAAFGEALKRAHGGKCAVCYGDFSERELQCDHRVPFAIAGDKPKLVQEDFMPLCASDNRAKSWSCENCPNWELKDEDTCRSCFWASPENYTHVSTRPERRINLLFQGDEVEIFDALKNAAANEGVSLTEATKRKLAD
Particulars: NEB4, 37 C, Mg2+.

Data set [7] concerns the target T6, HpaI (Haemophilus parainfluenzae) (UniProt P29537).
T6 sequence: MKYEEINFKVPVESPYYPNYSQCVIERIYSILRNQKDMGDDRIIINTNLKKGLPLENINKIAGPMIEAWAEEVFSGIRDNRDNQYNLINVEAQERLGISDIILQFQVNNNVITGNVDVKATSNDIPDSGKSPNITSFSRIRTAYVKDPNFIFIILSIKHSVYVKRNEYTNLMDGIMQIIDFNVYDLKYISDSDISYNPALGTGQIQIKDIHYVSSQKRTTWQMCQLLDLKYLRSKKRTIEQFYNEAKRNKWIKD
Particulars: NEB4, 37 C, Mg2+.

Data set [8] has as its target EcoRI-HF K62E (Escherichia coli RY13) (UniProt P00642). Particulars: NEB4, 37 C, Mg2+.
Data set [9] addresses T7, ScaI-HF H193A/S201F (Streptomyces caespitosus) (UniProt O52691).
T7 sequence: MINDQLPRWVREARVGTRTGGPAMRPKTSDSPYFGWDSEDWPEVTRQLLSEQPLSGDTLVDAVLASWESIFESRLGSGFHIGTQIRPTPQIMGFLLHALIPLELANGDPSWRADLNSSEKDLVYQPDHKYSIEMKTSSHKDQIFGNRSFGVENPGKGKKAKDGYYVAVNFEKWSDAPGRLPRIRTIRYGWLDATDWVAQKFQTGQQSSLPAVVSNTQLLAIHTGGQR
Particulars: NEB4, 37 C, Mg2+.

Data set [10] deals with T8, SapI (Saccharopolyspora sp.).
T8 sequence: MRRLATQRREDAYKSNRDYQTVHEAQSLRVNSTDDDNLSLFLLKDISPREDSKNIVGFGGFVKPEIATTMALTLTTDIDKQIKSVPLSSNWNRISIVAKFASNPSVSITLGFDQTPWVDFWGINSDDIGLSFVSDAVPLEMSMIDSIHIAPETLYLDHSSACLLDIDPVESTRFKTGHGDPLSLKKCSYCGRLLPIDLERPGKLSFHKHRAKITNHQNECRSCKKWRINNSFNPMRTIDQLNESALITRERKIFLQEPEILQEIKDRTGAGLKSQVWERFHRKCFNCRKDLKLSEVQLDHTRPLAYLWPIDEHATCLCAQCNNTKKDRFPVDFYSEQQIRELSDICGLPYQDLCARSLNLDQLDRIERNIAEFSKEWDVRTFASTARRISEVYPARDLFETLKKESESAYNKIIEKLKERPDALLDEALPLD
Particulars: NEB4, 37 C, Mg2+.

Regarding lambda DNA, the activity (fidelity index) in data set [1] was 8; in data set [2] it was 4; in [3], 4000; in data set [4] it was more than 500; in data set [5], 4; in data set [6] it was 8000. Moreover, the activity (fidelity index) in data set [7] was determined as 16; in data set [8], 16000; in data set [9], 1000; in data set [10] it was 16.
